From publication PMC12229972 (EJNMMI Radiopharmacy and Chemistry, 2025) come the findings set out here.

Data set [1] is described as follows: dynamic PET/CT imaging after lumbar infusion. Format: in vivo, Sprague–Dawley rats. Particulars: rats.
Data set [2] is described as follows: dynamic PET/CT imaging after cisterna magna infusion. It counts as in vivo, Sprague–Dawley rats. Particulars: rats.

As for “Al[^18F]F-7: aluminum [18F]fluoride restrained complexing agent (RESCA) conjugated rat serum albumin (RSA) reference tracer”, in data set [1], the “Cmax, intracranial space (ICS)” value came to 0.27 %ID. The “tmax, lumbar vertebra L1-L2” value in data set [1] (median(range)) is reported as 25(35) min. In data set [2] (geometric mean (CV), listed as 7), the “Cmax (maximum SUV), cervical and thoracic (T1-T2) vertebra (spinal canal)” value is 4.5(17%) SUV. Further, the “tmax, cisterna magna” value in data set [2] (median(range)) is listed as 20(0) min.
